Values of other authors, collected in article PMC11349558.

Target: histone H4 (UniProt P62805)

Question: With “fibrinogen D-domain (from UniProt P02671)” as the substance, how does the Kd read?
Answer: Its Kd is 2 nM.
